# Results taken from article PMC5423696.
# Target: LAMP1_(distal)-Fc (human)
# Test: SPR
substance,measurement,value
GP1_(LASV)-Fc (from UniProt P08669 75-237) (Fc fusion),Kd,15 nM
